Data as given in article doi:10.1101/2021.05.10.443404.

Assays:
[1] = target: (RBD(319-541)-CHO)2 (SARS-CoV-2) (UniProt P0DTC2); assay: SDS-PAGE
[2] = target: RBD(319-541)-HEK_A3 (SARS-CoV-2) (UniProt P0DTC2); assay: SDS-PAGE

(RBD(319-541)-CHO)2 (from UniProt P0DTC2 319-541) (domain or fragment)
stoichiometry N [1]: 2

RBD(319-541)-HEK_A3 (from UniProt P0DTC2 319-541) (domain or fragment)
percent of the preparation as dimer [2]: 13% | stoichiometry N [2]: 2
